Laboratory results: publication PMC4108180

Assays:
Experiment in all cases: purified protein
purified protein [1] = substrate: O=C(O)[C@@H](O)[C@H](O)[C@@H](O)[C@@H](O)CO; conditions: 0.5 mM NAD+, 50 mM phosphate pH 7.5, 30 °C
purified protein [2] = substrate: O=C(O)[C@@H](O)[C@H](O)[C@H](O)[C@@H](O)CO; conditions: 0.5 mM NAD+, 50 mM phosphate pH 7.5, 30 °C
purified protein [3] = substrate: O=C1O[C@@H](CO)[C@@H](O)[C@@H]1O; conditions: 2.5 mM MOPS pH 7.1, 0.2 M NaCl, 1% DMSO, 30 °C
purified protein [4] = substrate: O=C1O[C@H](CO)[C@@H](O)[C@@H]1O; conditions: 2.5 mM MOPS pH 7.1, 0.2 M NaCl, 1% DMSO, 30 °C
purified protein [5] = substrate: O=C1O[C@H]([C@@H](O)CO)[C@@H](O)[C@@H]1O; conditions: 2.5 mM MOPS pH 7.1, 0.2 M NaCl, 1% DMSO, 30 °C
purified protein [6] = substrate: C[C@H]1C[C@@H](O)[C@H](O)C(=O)O1; conditions: 2.5 mM MOPS pH 7.1, 0.2 M NaCl, 1% DMSO, 30 °C
purified protein [7] = substrate: O=C1O[C@@H](CO)[C@H](O)[C@@H](O)[C@@H]1O; conditions: 2.5 mM MOPS pH 7.1, 0.2 M NaCl, 1% DMSO, 30 °C
purified protein [8] = substrate: C[C@H](O)[C@H]1OC(=O)[C@@H](O)[C@@H]1O; conditions: 2.5 mM MOPS pH 7.1, 0.2 M NaCl, 1% DMSO, 30 °C
purified protein [9] = substrate: NC(=O)c1ccc[n+]([C@@H]2O[C@H](COP(=O)(O)OP(=O)(O)OC[C@H]3O[C@@H](n4cnc5c(N)ncnc54)[C@H](O)[C@@H]3O)[C@@H](O)[C@H]2O)c1; conditions: with L-galactose, 50 mM BICINE pH 8.0, 30 °C, varied: cofactor

B1: Bvu0222 (Phocaeicola vulgatus ATCC 8482) (protein)
chain: MKAIQITAPSEMKVVDIEKPVLEPGEVLVKIKYVGFCGSDLNTFLGRNPMVKLPVIPGHEVGAVIEAVGKDVPDSLKPGMSVTVNPYTNCGKCASCRNGRVNACEHNETLGVQRNGAMCEYIALPWSKIIPAHRIPPRDCALIEPMSVGFHAVSRAQVTDIDIVMVIGCGMIGMGAIVRSALRGATVIAVDLDDEKLELAKRIGAHHTINSMTENVHECLTKITEGLGPDVVIEAVGSPATYVMAVNEVGFTGRVVCIGYAKSEVSFQTKYFVQKELDIRGSRNALPTDFRAVIRYMEQGTCPKNELISKVVKPEAAIQAMKEWAAAPGKVFRILVEFD
Q: How did the Km (purified protein [1]) turn out when B1 was run?
A: The Km was 510 ± 70 µM.

Q: What about the kcat (purified protein [1]) of the same protein?
A: Its kcat is 0.2 ± 0.1 s⁻¹.

Q: And the kcat/Km (purified protein [1])?
A: Its kcat/Km is 390 ± 60 M⁻¹ s⁻¹.

Q: What about the Km (purified protein [2]) of the same protein?
A: The Km was 36 ± 3 µM.

Q: And the kcat (purified protein [2])?
A: The kcat was 0.6 ± 0.1 s⁻¹.

Q: What about the kcat/Km (purified protein [2]) of the same protein?
A: The kcat/Km was 17000 ± 1000 M⁻¹ s⁻¹.

B2: Bvu0220 (Phocaeicola vulgatus ATCC 8482) (protein)
chain: MMDFNIIDAHSHLWLRQDTEVNGLPIRTLTNGRSLFMGEERQMVPPFMIDGRNSAEVFLSNMDYAQVSAAVVTQEFIDGIQNEYLAKVSHKYPDRFFVCGMCEFRKPGYLQQAKELISSGFKAIKIPAHRLFLKEGRVMLNSDEMMEMFHYMQEKDIILSIDLADGDTQVQEMKEIIQEYPQLRIAIGHFGMVTTPHWQEQIKLARHKNVMIESGGITWLFNSEFYPFHGAVKAIKEAADLVGMDKLMWGSDYPRTITAITYKMSYDFILKTTEMTQEEKALFLGKNAERFYGFKNLISLPYIKNMSE
Q: For B2, which Km (purified protein [3]) is on record?
A: The Km was 5500 ± 550 µM.

Q: What about the kcat (purified protein [3]) of the same protein?
A: The kcat was 5.3 ± 0.4 s⁻¹.

Q: And the kcat/Km (purified protein [3])?
A: The kcat/Km was 930 ± 40 M⁻¹ s⁻¹.

Q: What about the Km (purified protein [4]) of the same protein?
A: Its Km is 1700 ± 140 µM.

Q: What about the kcat (purified protein [4]) of the same protein?
A: Its kcat is 1 ± 0.1 s⁻¹.

Q: What about the kcat/Km (purified protein [4]) of the same protein?
A: Its kcat/Km is 500 ± 30 M⁻¹ s⁻¹.

Q: What about the Km (purified protein [5]) of the same protein?
A: Its Km is 1950 ± 310 µM.

Q: And the kcat (purified protein [5])?
A: The kcat was 34 ± 3 s⁻¹.

Q: And the kcat/Km (purified protein [5])?
A: Its kcat/Km is 18000 ± 2000 M⁻¹ s⁻¹.

Q: And the Km (purified protein [6])?
A: Its Km is 32 ± 4 µM.

Q: And the kcat (purified protein [6])?
A: The kcat was 23 ± 1 s⁻¹.

Q: What about the kcat/Km (purified protein [6]) of the same protein?
A: Its kcat/Km is 720000 ± 80000 M⁻¹ s⁻¹.

Q: And the Km (purified protein [7])?
A: Its Km is 500 ± 40 µM.

Q: And the kcat (purified protein [7])?
A: The kcat was 38 ± 1 s⁻¹.

Q: And the kcat/Km (purified protein [7])?
A: The kcat/Km was 80000 ± 5000 M⁻¹ s⁻¹.

Q: What about the Km (purified protein [8]) of the same protein?
A: The Km was 1320 ± 210 µM.

Q: And the kcat (purified protein [8])?
A: The kcat was 23 ± 2 s⁻¹.

Q: And the kcat/Km (purified protein [8])?
A: The kcat/Km was 18000 ± 2000 M⁻¹ s⁻¹.

B3: Bvu0219 (Phocaeicola vulgatus ATCC 8482) (protein)
chain: MNYNEIGKTGMRVSNLSFGASSLGGVFHDIREAEGIKAVYTAVENGMNFIDVSPYYGHYKAETVLGKALKEIPRDKYYLSTKVGRYGKDGVNTWDYSGKRATESVYESLDRLHIEYIDLINVHDVEFSDMNQVVNETLPALVELKKKGIVGHVGITDLQLENLKWIIDHSEPGTVESVLNFCHYCLNDEKLTDYLDYFESKNIGIINASPLSMGLLSQRGVPAWHPAPQSLVEACRKAVQHCLSKNYPIEKLAIQYSVSNPRIATTLFSSANPDNVLKNITYAEEPIDWNLVKEVQEIIGKQMRISWANS
Q: Which results are given for B3?
A: Km (purified protein [9]): 3000 ± 200 µM; kcat (purified protein [9]): 25 ± 1 s⁻¹; kcat/Km (purified protein [9]): 9000 ± 100 M⁻¹ s⁻¹
